{"source": "patent US11820827B2", "about": "“Methods of treating myelodysplastic syndrome and acute myeloid leukemia with nonfucosylated anti-CD70 antibodies” (Seagen Inc., priority 2019, dated 2023)", "key": {"[1]": {"tested_on": "Raji NHL Burkitt Lymphoma model", "assay": "Survival in the Raji NHL Burkitt Lymphoma mouse model", "assay_type": "in vivo, SCID mice", "conditions": "for median survival post implant: untreated 20 days"}, "[2]": {"tested_on": "NOMO-1 CD70+ AML cell line", "assay": "CDC with normal human serum, NOMO-1", "assay_type": "cell-based", "conditions": "normal human serum not heat inactivated", "protocol": "AML cell lines positive for CD70 were fluorescently labeled and treated with increasing concentrations of CD70 directed antibodies. Cells were then exposed to human compliment and lysis determined as release of fluorescent dye.\nThe following protocol was used to assess CDC activity on AML cell lines: • 1. Cells were incubated with […] anti-CRP monoclonal antibodies mix (anti-hCD46, anti-hCD55, anti-hCD59) for 30 minutes on ice. • 2. Cells were washed and plated (200,000 cells/well) in media containing non-heat-inactivated serum, Sytox Green (Life technology), and antibodies, which were added at the indicated final concentration, for 2 hours at 37° C. • 3. Cell dead was quantified by detecting Sitox Green fluorescent signal on an Envison plate reader (Perkin Elmer) and normalized over positive control (1% Triton X-100 treated cells)."}, "hFcγRIIIa V158": {"target": "T1, hFcγRIIIa V158 (Homo sapiens, UniProt P08637, F176V)", "T1 construct": "made in house", "T1 sequence (P08637 17-208 F176V)": "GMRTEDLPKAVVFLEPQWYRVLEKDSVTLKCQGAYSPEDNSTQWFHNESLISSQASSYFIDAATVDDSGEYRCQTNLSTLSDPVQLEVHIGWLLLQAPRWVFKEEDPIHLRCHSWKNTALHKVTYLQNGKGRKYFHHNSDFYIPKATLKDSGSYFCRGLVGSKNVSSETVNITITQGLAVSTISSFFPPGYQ", "assay": "BLI binding kinetics to high affinity FcγRIIIa (158V) receptor variant", "conditions": "versus SGN-70"}, "[3]": {"target": "T2, cynomolgus FcγRIIIa receptor (Macaca fascicularis, UniProt Q8SPW2)", "T2 construct": "expressed in transfected cells; host or cells: CHO", "T2 sequence (Q8SPW2 17-254)": "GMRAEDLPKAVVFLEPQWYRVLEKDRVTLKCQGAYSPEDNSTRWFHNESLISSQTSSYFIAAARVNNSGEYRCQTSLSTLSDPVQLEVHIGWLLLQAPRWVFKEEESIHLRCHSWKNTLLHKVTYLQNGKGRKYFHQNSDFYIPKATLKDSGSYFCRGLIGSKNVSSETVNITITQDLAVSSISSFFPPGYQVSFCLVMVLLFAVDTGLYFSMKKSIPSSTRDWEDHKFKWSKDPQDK", "assay": "CHO-FcγRIIIa binding assay by flow cytometry (cynomolgus receptor)", "conditions": "compared with SGN-70", "protocol": "While BLI methodology is used to assess receptor affinity by monitoring binding kinetics, it is primarily set to monitor monovalent binding. To add to BLI data sets, flow cytometry was also performed (FIGS. 2A and 2B).\nThe CHO-FcγRIIIa binding assay was conducted as follows: • 1. Thaw cells: Cells were thawed on 11 Jun. 2019, and cultured in culture medium for 1 week to recover from freeze-thaw.\n• 2. Wash: 60 million cells were washed 1× in PBS in 50-mL tubes. Cells were counted again and resuspended at 2.2×10^6/mL. Then 0.1 mL was pipetted per well • 3. Make 10× dilutions of antibody: The 10× dilutions were prepared (3 mg/mL, 1 mg/mL, 0.3 mg/mL, 0.1 mg/mL, 0.03 mg/mL, 0.01 mg/mL, 0.003 mg/mL, 0.001 mg/mL, and 0.0003 mg/mL in the dilution plate).\n• 4. Aspirate: Wash was aspirated in wells and 100 μL of the corresponding antibody dilutions was pipetted with a multichannel pipet. The corresponding concentrations were 300, 100, 30, 10, 3, 1, […] μg/mL in triplicate. The concentrations were decreased vertically down the 96-well round bottom plate. • 5. […] Analyze samples: Samples were analyzed by flow cytometry in high throughput sampler (HTS) mode on the Attune. Median fluorescence intensity (MFI) was graphed (geomean), and equilibrium dissociation constant (KD) for each was calculated in PRIZM"}, "[4]": {"tested_on": "MOLM-13 CD70+ target cells", "assay": "ADCP with monocyte-derived macrophages, MOLM-13", "assay_type": "cell-based, human", "conditions": "flow cytometry, antibody dose-dependent", "protocol": "Phagocytosis of fluorescently labeled target cells was determined by flow cytometry. Phagocytosis was measured for the appearance of double-labeled coincident events (fluorescent target cells) and anti-CD11c positivity to identify monocyte/macrophages.\nThe following protocol was used to assess […] activity on AML cell lines: • 1. Target cells were labeled using the PKH26 Red Fluorescent Cell Linker Mini Kit (Sigma Aldrich) and following the manufacturer's instructions. • 2. Cells (4000 cells/well) were incubated with the indicated test articles for 30 minutes, washed and resuspended in RPMI plus 10% ultra-low IgG FBS. • 3. PBMC-derived macrophages (100,000 cells/well), generated by incubating PBMC-derived monocytes with 500 U/mL (50 ng/mL) GM-CSF for 10-12 days, were added to the target cells and incubated at 37° C. for 2 hours. • 4. Plates were centrifuged and cells resuspended in 100 μl of APC-CD11 antibody (macrophage marker) and incubated on ice for 30 minutes. • 5. Cells were washed, resuspended in PBS and analyzed by flow cytometry to determine the percentage of phagocytosis"}}}
{"molecule": "SEA-CD70: humanized, nonfucosylated monoclonal IgG1 antibody targeting CD70 (nonfucosylated h1F6) (antibody, chains of the INN, looked up, V domains shown, nonfucosylated) VH: QVQLVQSGAEVKKPGASVKVSCKASGYTFTNYGMNWVRQAPGQGLKWMGWINTYTGEPTYADAFKGRVTMTRDTSISTAYMELSRLRSDDTAVYYCARDYGDYGMDYWGQGTTVTVSS VL: DIVMTQSPDSLAVSLGERATINCRASKSVSTSGYSFMHWYQQKPGQPPKLLIYLASNLESGVPDRFSGSGSGTDFTLTISSLQAEDVAVYYCQHSREVPWTFGQGTKVEIK", "values": [{"measurement": "median survival post implant", "setting": "[1]; 0.3 mg/kg Q4dx4 intraperitoneally", "value": 36.5, "unit": "days"}, {"measurement": "median survival post implant", "setting": "[1]; 1 mg/kg Q4dx4 intraperitoneally", "value": 68, "unit": "days"}, {"measurement": "total number of animals in group", "setting": "[1]; 1 mg/kg, day 0", "value": 8}, {"measurement": "total number of animals in group", "setting": "[1]; 1 mg/kg, day 23", "value": 8}, {"measurement": "total number of animals in group", "setting": "[1]; 1 mg/kg, day 30", "value": 7}, {"measurement": "total number of animals in group", "setting": "[1]; 1 mg/kg, day 54", "value": 6}, {"measurement": "total number of animals in group", "setting": "[1]; 1 mg/kg, day 61", "value": 5}, {"measurement": "total number of animals in group", "setting": "[1]; 1 mg/kg, day 75", "value": 4}, {"measurement": "total number of animals in group", "setting": "[1]; 1 mg/kg, day 90", "value": 3}, {"measurement": "median survival post implant", "setting": "[1]; 3 mg/kg Q4dx4 intraperitoneally", "value": 69.5, "unit": "days"}, {"measurement": "total number of animals in group", "setting": "[1]; 3 mg/kg, day 0", "value": 8}, {"measurement": "total number of animals in group", "setting": "[1]; 3 mg/kg, day 28", "value": 8}, {"measurement": "total number of animals in group", "setting": "[1]; 3 mg/kg, day 33", "value": 7}, {"measurement": "total number of animals in group", "setting": "[1]; 3 mg/kg, day 64", "value": 5}, {"measurement": "total number of animals in group", "setting": "[1]; 3 mg/kg, day 75", "value": 4}, {"measurement": "total number of animals in group", "setting": "[1]; 3 mg/kg, day 90", "value": 3}, {"measurement": "survival compared to untreated mice", "setting": "[1]; 0.3, 1 and 3 mg/kg", "value": "increased survival"}, {"measurement": "total number of animals in group", "setting": "[1]; .3 mg/kg, day 0", "value": 8}, {"measurement": "total number of animals in group", "setting": "[1]; .3 mg/kg, day 5", "value": 8}, {"measurement": "total number of animals in group", "setting": "[1]; .3 mg/kg, day 33", "value": 7}, {"measurement": "total number of animals in group", "setting": "[1]; .3 mg/kg, day 35", "value": 6}, {"measurement": "total number of animals in group", "setting": "[1]; .3 mg/kg, day 36", "value": 5}, {"measurement": "total number of animals in group", "setting": "[1]; .3 mg/kg, day 37", "value": 4}, {"measurement": "total number of animals in group", "setting": "[1]; .3 mg/kg, day 69", "value": 3}, {"measurement": "total number of animals in group", "setting": "[1]; .3 mg/kg, day 90", "value": 2}, {"measurement": "cell lysis by complement fixation", "setting": "[2]", "value": "lysed in an antibody-specific, dose-dependent manner"}, {"measurement": "increase in binding affinity for the FcγRIIIa (158V) receptor", "setting": "hFcγRIIIa V158", "value": 8, "unit": "fold"}, {"measurement": "binding affinity to cynomolgus FcγRIIIa on CHO cells", "setting": "[3]", "value": "bound with higher affinity than SGN-70"}, {"measurement": "phagocytosis of antibody-coated target cells by macrophages", "setting": "[4]", "value": "readily phagocytosed target cells"}]}
